Results reported in IntAct's records for PubMed 29039417.

B1: BBSome-interacting protein 1 (Homo sapiens), A8MTZ0 (parent)
chain: MLKAAAKRPELSGKNTISNNSDMAEVKSMFREVLPKQGPLFVEDIMTMVLCKPKLLPLKSLTLEKLEKMHQAAQNTIRQQEMAEKDQRQITH
partner: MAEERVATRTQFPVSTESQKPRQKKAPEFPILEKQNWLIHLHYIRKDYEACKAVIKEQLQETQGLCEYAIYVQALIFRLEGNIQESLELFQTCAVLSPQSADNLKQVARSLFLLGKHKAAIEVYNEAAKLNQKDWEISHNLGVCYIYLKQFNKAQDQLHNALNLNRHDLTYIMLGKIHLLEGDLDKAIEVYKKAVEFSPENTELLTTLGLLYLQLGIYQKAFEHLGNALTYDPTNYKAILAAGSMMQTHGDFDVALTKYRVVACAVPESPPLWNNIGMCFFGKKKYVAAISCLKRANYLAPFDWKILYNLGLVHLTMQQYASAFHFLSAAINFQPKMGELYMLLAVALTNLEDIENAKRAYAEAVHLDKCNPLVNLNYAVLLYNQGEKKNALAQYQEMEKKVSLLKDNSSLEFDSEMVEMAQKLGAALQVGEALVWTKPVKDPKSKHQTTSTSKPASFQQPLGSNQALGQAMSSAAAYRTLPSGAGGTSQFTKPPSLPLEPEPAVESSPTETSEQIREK

Variants of: B1
Conditions: with bbs4_human BBS4, Q96RK4

| Variant | effect of a mutation on the interaction |
| --- | --- |
| MLKAAAKRPELSGKNTISNNSDMAEVKSMFREVLPKQGPLFVEDIMTMVLCIPKLLPLKSLTLEKLEKMHQAAQNTIRQQEMAEKDQRQITH [K52I] | disrupting interaction strength |
| MLKAAAKRPELSGKNTISNNSDMAEVKSMFREVLPKQGPLFVEDIMTMVLCEPKLLPLKSLTLEKLEKMHQAAQNTIRQQEMAEKDQRQITH [K52E] | with no effect |
| MLKAAAKRPELSGKNTISNNSDMAEVKSMFREVLPKQGPLFVEDIMTMVLCKPKLLPLKSLTLEKLEKMKQAAQNTIRQQEMAEKDQRQITH [H70K] | with no effect |
| MLKAAAKRPELSGKNTISNNSDMAEVKSMFREVLPKQGPLFVEDIMTMVLCKPKLLPLKSLTLEKLEKMTQAAQNTIRQQEMAEKDQRQITH [H70T] | disrupting interaction strength |
| MLKAAAKRPELSGKNTISNNSDMAEVKSMFRKVLPKQGPLFVEDIMTMVLCKPKLLPLKSLTLEKLEKMHQAAQNTIRQQEMAEKDQRQITH [E32K] | disrupting interaction strength |
| MLKAAAKRPELSGKNTISNNSDMAEVKSMFRAVLPKQGPLFVEDIMTMVLCKPKLLPLKSLTLEKLEKMHQAAQNTIRQQEMAEKDQRQITH [E32A] | with no effect |
| MLKAAAKRPELSGKNTISNNSDMAEVKSMFREVLPKQGPLFVEDIMTMVLCKPKLLPLKSLTLEKLEKMHQAAQNTIRQAEMAEKDQRQITH [Q80A] | with no effect |
| MLKAAAKRPELSGKNTISNNSDMAEVKSMFREVLPKQGPLFVEDIMTMVLCKPKALPLKSLTLEKLEKMHQAAQNTIRQQEMAEKDQRQITH [L55A] | with no effect |
| MLKAAAKRPELSGKNTISNNSDMAEVKSMFREVLPKQGPLFVEDIMTMVLCKPKLLPLKSLTLEKLEKMHQAAQNTIRQQEMAEKKQRQITH [D86K] | with no effect |
| MLKAAAKRPELSGKETISNNSDMAEVKSMFREVLPKQGPLFVEDIMTMVLCKPKLLPLKSLTLEKLEKMHQAAQNTIRQQEMAEKDQRQITH [N15E] | with no effect |
| MLKKAAKRPELSGKNTISNNSDMAEVKSMFREVLPKQGPLFVEDIMTMVLCKPKLLPLKSLTLEKLEKMHQAAQNTIRQQEMAEKDQRQITH [A4K] | with no effect |
| MLKEAAKRPELSGKNTISNNSDMAEVKSMFREVLPKQGPLFVEDIMTMVLCKPKLLPLKSLTLEKLEKMHQAAQNTIRQQEMAEKDQRQITH [A4E] | with no effect |
| MLKAAAKRPELSGKNTISNNSDMAEVKSMFREVLPKQGPLFVEDIMTMVLCKPKLLPLKSLTLEKLEKMHQAAQATIRQQEMAEKDQRQITH [N75A] | with no effect |
| MLKAAAKRPELSGKNTISNNSDMAEVKSMFREVLPKQGPLFVEDIATMVLCKPKLLPLKSLTLEKLEKMHQAAQNTIRQQEMAEKDQRQITH [M46A] | with no effect |
| MLKAAAKRPELSGKNTISNNSDMAEVKSMFREVLPKQGPLFVEDIMTMVLCKPKLLPLKSLTLEALEKMHQAAQNTIRQQEMAEKDQRQITH [K65A] | with no effect |
| MLKAAAKRPELSGKNTISNNSAMAEVKSMFREVLPKQGPLFVEDIMTMVLCKPKLLPLKSLTLEKLEKMHQAAQNTIRQQEMAEKDQRQITH [D22A] | with no effect |
| MLKAAAKRPELSGENTISNNSDMAEVKSMFREVLPKQGPLFVEDIMTMVLCKPKLLPLKSLTLEKLEKMHQAAQNTIRQQEMAEKDQRQITH [K14E] | with no effect |
| MLKAAAKRPELSGKNTISNNSDMAEVKSMFREVLPKQGPLFVEDIMTMVLCKPKLAPLKSLTLEKLEKMHQAAQNTIRQQEMAEKDQRQITH [L56A] | with no effect |
| MLKAAAKRPELSGKNTISNNSDMAEVKSFFREVLPKQGPLFVEDIMTMVLCKPKLLPLKSLTLEKLEKMHQAAQNTIRQQEMAEKDQRQITH [M29F] | disrupting interaction strength |
| MLKAAAKRPELSGKNTISNNSDMAEVKSAFREVLPKQGPLFVEDIMTMVLCKPKLLPLKSLTLEKLEKMHQAAQNTIRQQEMAEKDQRQITH [M29A] | with no effect |
| MLKAAAKRPELSGKNTISNNSDMAEVKSEFREVLPKQGPLFVEDIMTMVLCKPKLLPLKSLTLEKLEKMHQAAQNTIRQQEMAEKDQRQITH [M29E] | with no effect |
| MLKAAAKRPELSGKNTISNNSDMAEVKSMFREVLPKQGPLFVEDIMTMVLCKPKLLPLKSLTLEKLEKMHQAAQNTIRKQEMAEKDQRQITH [Q79K] | with no effect |
| MLKAAAKRPELSGKNTISNNSDMAEVKSMFREVLPKQGPLFVEDIMTMVLCKPKLLPLKSLTLEKLEKMHQAAQNTIREQEMAEKDQRQITH [Q79E] | with no effect |
| KLKAAAKRPELSGKNTISNNSDMAEVKSMFREVLPKQGPLFVEDIMTMVLCKPKLLPLKSLTLEKLEKMHQAAQNTIRQQEMAEKDQRQITH [M1K] | with no effect |
| MLKAAAKRPELSGKNTISNNSDMAEVKSMKREVLPKQGPLFVEDIMTMVLCKPKLLPLKSLTLEKLEKMHQAAQNTIRQQEMAEKDQRQITH [F30K] | with no effect |
| MLKAAAKRPELSGKNTISNNSDMAEVKSMFREVLPKQGPLFVEAIMTMVLCKPKLLPLKSLTLEKLEKMHQAAQNTIRQQEMAEKDQRQITH [D44A] | with no effect |
